Measured values as given in the supplement of paper PMC7125110.
± gives the standard error. This sample holds only a part of the variants without activity.

B1: glmS ribozyme (parent)
chain: AUAAAAGCGCCAGAACUACAGAAAUGUAGUUGACGAGGAGGAGGUUUAUCGAAUUUUCGGCGGAUGCCUCCAAA

Variants of: B1
Assay: self-cleavage kobs at 2500 uM GlcN6P; higher = faster cleavage; RNA array
Conditions: with glucosamine-6-phosphate
Outline: (§1)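 Over ~14 h at 37 °C, tiles were imaged as glucosamine-6-phosphate (40 μM to 10 mM) in HEPES/KCl/Mg(OAc)2 buffer flowed across sequenced MiSeq chips. The chips carried barcoded ribozyme variants transcribed in situ by E. coli RNA polymerase and tracked with a hybridised Cy3 probe. After normalisation to baseline and to non-cleaving reference variants, one- or two-exponential decay fits of per-tile medians gave kobs. kcat and KM followed from weighted Michaelis–Menten fits across concentrations.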

G9U G66U U69G and G41U U54A U55A U56A C67U cannot be ordered by “self-cleavage kobs at 2500 uM GlcN6P” value: less than 1e-05 s⁻¹ for the first, less than 1e-05 s⁻¹ for the second.

A15C G41U U57C A64U and G63C G66C C67G cannot be ordered by “self-cleavage kobs at 2500 uM GlcN6P” value: less than 1e-05 s⁻¹ for the first, less than 1e-05 s⁻¹ for the second.

G29A G32U G60C and A12U G32U G43C cannot be ordered by “self-cleavage kobs at 2500 uM GlcN6P” value: less than 1e-05 s⁻¹ for the first, less than 1e-05 s⁻¹ for the second.

First: A6U C10A U49C C70G C71G
Second: C8G U30C A36C U69C
The “self-cleavage kobs at 2500 uM GlcN6P” value of the first is higher: 0.00019 ± 8.2e-05 s⁻¹ for the first, less than 1e-05 s⁻¹ for the second.

A14G A15U U31G G43U U45A and G9U G35A A36G G63U cannot be ordered by “self-cleavage kobs at 2500 uM GlcN6P” value: less than 1e-05 s⁻¹ for the first, less than 1e-05 s⁻¹ for the second.

G35A A42U G44A and A52U G60A G66U cannot be ordered by “self-cleavage kobs at 2500 uM GlcN6P” value: less than 1e-05 s⁻¹ for the first, less than 1e-05 s⁻¹ for the second.

A12C A36G G40U G43U U54G and G9A G13C C34A G40C C50U C71G cannot be ordered by “self-cleavage kobs at 2500 uM GlcN6P” value: less than 1e-05 s⁻¹ for the first, less than 1e-05 s⁻¹ for the second.

A33C G41C U69G and G29C G40U U46C C67A cannot be ordered by “self-cleavage kobs at 2500 uM GlcN6P” value: less than 1e-05 s⁻¹ for the first, less than 1e-05 s⁻¹ for the second.

C16A A36G C67G and A33C U54C C67G C68G C70U cannot be ordered by “self-cleavage kobs at 2500 uM GlcN6P” value: less than 1e-05 s⁻¹ for the first, less than 1e-05 s⁻¹ for the second.

A33G A42U U47A A53G and U31C G40U A42U G63C cannot be ordered by “self-cleavage kobs at 2500 uM GlcN6P” value: less than 1e-05 s⁻¹ for the first, less than 1e-05 s⁻¹ for the second.

First: A14G G38C C61U
Second: A14C G21U
The “self-cleavage kobs at 2500 uM GlcN6P” value of the first is lower: less than 1e-05 s⁻¹ for the first, 0.00132 ± 0.00031 s⁻¹ for the second.

C16U C34A A36C C58A and A15U G29U C61U cannot be ordered by “self-cleavage kobs at 2500 uM GlcN6P” value: less than 1e-05 s⁻¹ for the first, less than 1e-05 s⁻¹ for the second.

A33U G43A U57C and G35C U46A C67G cannot be ordered by “self-cleavage kobs at 2500 uM GlcN6P” value: less than 1e-05 s⁻¹ for the first, less than 1e-05 s⁻¹ for the second.

U31G G37U U56G and G37C U45G U46G G60C A64C cannot be ordered by “self-cleavage kobs at 2500 uM GlcN6P” value: less than 1e-05 s⁻¹ for the first, less than 1e-05 s⁻¹ for the second.

G13C C58G G59A and U30A G32U C50A cannot be ordered by “self-cleavage kobs at 2500 uM GlcN6P” value: less than 1e-05 s⁻¹ for the first, less than 1e-05 s⁻¹ for the second.

G51U C68U C71U and G43C U46G A52G U54G G60A cannot be ordered by “self-cleavage kobs at 2500 uM GlcN6P” value: less than 1e-05 s⁻¹ for the first, less than 1e-05 s⁻¹ for the second.

G37U U56C C67A and G9U U45G G62C G66C cannot be ordered by “self-cleavage kobs at 2500 uM GlcN6P” value: less than 1e-05 s⁻¹ for the first, less than 1e-05 s⁻¹ for the second.

A12C A36C C71A and C8G A42C U45C C71G cannot be ordered by “self-cleavage kobs at 2500 uM GlcN6P” value: less than 1e-05 s⁻¹ for the first, less than 1e-05 s⁻¹ for the second.

First: G13U U55G C67A
Second: C8G G35U A52G C61A
The “self-cleavage kobs at 2500 uM GlcN6P” value of the first is higher: 8.05e-05 ± 1.9e-05 s⁻¹ for the first, less than 1e-05 s⁻¹ for the second.

Going from C16U U56C G63A G66U to C10U C67G C68U, the “self-cleavage kobs at 2500 uM GlcN6P” value rises from less than 1e-05 s⁻¹ to 0.000126 ± 4.8e-05 s⁻¹.

U31G C61A C67A and U45G A48C are within error of each other in “self-cleavage kobs at 2500 uM GlcN6P” value: 0.000101 ± 2.8e-05 s⁻¹ for the first, 5.95e-05 ± 2.2e-05 s⁻¹ for the second.

A12G G63A C67A and G41U U45G U49A cannot be ordered by “self-cleavage kobs at 2500 uM GlcN6P” value: less than 1e-05 s⁻¹ for the first, less than 1e-05 s⁻¹ for the second.

Compared with G29C U46G U55G, A6G G60A C67G is lower in “self-cleavage kobs at 2500 uM GlcN6P” value: 3.45e-05 ± 1.5e-05 s⁻¹ for the first, less than 1e-05 s⁻¹ for the second.

U47C A52G G60C U65G C67A and A12G A14C A33U C34G G38U cannot be ordered by “self-cleavage kobs at 2500 uM GlcN6P” value: less than 1e-05 s⁻¹ for the first, less than 1e-05 s⁻¹ for the second.

G35A A36U G44A A52G C61G C67A and C34U G38U A42U G63U cannot be ordered by “self-cleavage kobs at 2500 uM GlcN6P” value: less than 1e-05 s⁻¹ for the first, less than 1e-05 s⁻¹ for the second.

Going from G13U U30C G32C to C8U G60U C61G C70G, the “self-cleavage kobs at 2500 uM GlcN6P” value falls from 6.71e-05 ± 2.9e-05 s⁻¹ to less than 1e-05 s⁻¹.

G9U U47G C68U and A12U A39U G63A cannot be ordered by “self-cleavage kobs at 2500 uM GlcN6P” value: less than 1e-05 s⁻¹ for the first, less than 1e-05 s⁻¹ for the second.

G7A A12G G40U A48G A52C C67U and G41A U47C G51C cannot be ordered by “self-cleavage kobs at 2500 uM GlcN6P” value: less than 1e-05 s⁻¹ for the first, less than 1e-05 s⁻¹ for the second.

First: U46A U56A C67G
Second: G13C G62C A64C
The “self-cleavage kobs at 2500 uM GlcN6P” value of the first is higher: 0.000143 ± 6.8e-05 s⁻¹ for the first, less than 1e-05 s⁻¹ for the second.

A42U A48G A52G C58G and U30A G38U G40C cannot be ordered by “self-cleavage kobs at 2500 uM GlcN6P” value: less than 1e-05 s⁻¹ for the first, less than 1e-05 s⁻¹ for the second.

First: A6U A14G U56A
Second: A33U A48U G59A C61U C71U
The “self-cleavage kobs at 2500 uM GlcN6P” value of the first is higher: 0.000586 ± 0.00023 s⁻¹ for the first, less than 1e-05 s⁻¹ for the second.

Compared with A39G A48C C71G, C11A U30G G43C C68G C71U is 6.4-fold higher in “self-cleavage kobs at 2500 uM GlcN6P” value: 4.19e-05 ± 1.9e-05 s⁻¹ for the first, 0.000269 ± 9.8e-05 s⁻¹ for the second.

Compared with G26U A48G, U30A A36C U45C is lower in “self-cleavage kobs at 2500 uM GlcN6P” value: 7.11e-05 ± 1.8e-05 s⁻¹ for the first, less than 1e-05 s⁻¹ for the second.

A14U G29U A48U A53U G62U and G35A A48C G51A U56G cannot be ordered by “self-cleavage kobs at 2500 uM GlcN6P” value: less than 1e-05 s⁻¹ for the first, less than 1e-05 s⁻¹ for the second.

Compared with G13A U45G A64G, G7U A12C A36C A39U U47C is lower in “self-cleavage kobs at 2500 uM GlcN6P” value: 6.3e-05 ± 1.9e-05 s⁻¹ for the first, less than 1e-05 s⁻¹ for the second.

G38A C58U C71U and A12U G35A A39G U45C C61U cannot be ordered by “self-cleavage kobs at 2500 uM GlcN6P” value: less than 1e-05 s⁻¹ for the first, less than 1e-05 s⁻¹ for the second.

First: C16U G41C C70A
Second: C50A U55G C67G
The “self-cleavage kobs at 2500 uM GlcN6P” value of the first is 3.7-fold higher: 0.000347 ± 0.00017 s⁻¹ for the first, 9.38e-05 ± 3.7e-05 s⁻¹ for the second.

G29A A33G G38A G60U and C11A U49G cannot be ordered by “self-cleavage kobs at 2500 uM GlcN6P” value: less than 1e-05 s⁻¹ for the first, less than 1e-05 s⁻¹ for the second.

Going from A12C C16U U57A to C8A A53U C71U, the “self-cleavage kobs at 2500 uM GlcN6P” value falls from 4.57e-05 ± 1.5e-05 s⁻¹ to less than 1e-05 s⁻¹.

Compared with G35U C50G G66A, G35C G38U G59C U69G is lower in “self-cleavage kobs at 2500 uM GlcN6P” value: 7.38e-05 ± 3.6e-05 s⁻¹ for the first, less than 1e-05 s⁻¹ for the second.

With G7A C8U C10U A12C A36C U49G G60C A64U the “self-cleavage kobs at 2500 uM GlcN6P” value was less than 1e-05 s⁻¹.

Variants of: B1
Assay: self-cleavage kobs at 10000 uM GlcN6P; higher = faster cleavage; RNA array
Conditions: with glucosamine-6-phosphate
Outline: as §1

C8G U30C A36C U69C and C8G A42C U45C C71G cannot be ordered by “self-cleavage kobs at 10000 uM GlcN6P” value: less than 1e-05 s⁻¹ for the first, less than 1e-05 s⁻¹ for the second.

Compared with U45G A48C, U46A U56A C67G is 2.7-fold higher in “self-cleavage kobs at 10000 uM GlcN6P” value: 0.000117 ± 2.2e-05 s⁻¹ for the first, 0.000316 ± 7.6e-05 s⁻¹ for the second.

Going from A6U A14G U56A to C11A U30G G43C C68G C71U, the “self-cleavage kobs at 10000 uM GlcN6P” value falls from 0.00142 ± 0.00018 s⁻¹ to 0.000118 ± 3e-05 s⁻¹ (12-fold).

Compared with A14U G29U A48U A53U G62U, A12C C16U U57A is higher in “self-cleavage kobs at 10000 uM GlcN6P” value: less than 1e-05 s⁻¹ for the first, 0.000157 ± 3.4e-05 s⁻¹ for the second.
